IntAct's records for PubMed 20062059

B1: Exocyst complex component SEC3 (Saccharomyces cerevisiae), P33332 (parent)
chain: MRSSKSPFKRKSHSRETSHDENTSFFHKRTISGSSAHHSRNVSQGAVPSSAPPVSGGNYSHKRNVSRASNSSQTSNFLAEQYERDRKAIINCCFSRPDHKTGEPPNNYITHVRIIEDSKFPSSRPPPDSKLENKKKRLLILSAKPNNAKLIQIHKARENSDGSFQIGRTWQLTELVRVEKDLEISEGFILTMSKKYYWETNSAKERTVFIKSLITLYIQTFEGHVPELVNWDLSLFYLDERSYQRAVITNRPGSVSPIKSPTSNFTTNTTQSVGSVPFSAPTERTRRSETESVNPVSTPASVEYHAGMKSLNKAPYSSNSTLNEVNKRYELEQQQQQEEAELRRLEEQKRLQLQKENEMKRLEEERRIKQEERKRQMELEHQRQLEEEERKRQMELEAKKQMELKRQRQFEEEQRLKKERELLEIQRKQREQETAERLKKEEQEALAKKEEEEKSKRNKVDNESYTQEINGKVDNLLEDLNAVLAEETETTPTMQNGTYVPERSTARAHDQLKKPLNIAKVESLGGSDLNDSISLSDEIAGLNTSNLSGEDQDEKNDLSFEKGDEVRYSNNFEGEAPHVYHEVSIIQEEAPAVSQKLILPEENNESEALIESKEEIKTMENIDDEVLLEILTDINWSIEDDADSMIERIDLRLAETEYLFNQNLLSLQKIGPNIRPYEDKVNDECHRIIPTLSLFLMEMSNFSNDIENVESQDNGLQVESANKKLLWNTLDELLKTVSLDEISLNQLLECPIREKNLPWMENQLNLLLKAFQAIGSDGNEVEYNLREISGLKQRLQFYEKVTKIFLNRIVEEMQKKFSNIRGQDISHDQMIRILTTLLIFSPLILFCKEISQKSYQAIVENWNVSIQPVYMELWTKKISQLQGIDTNDEKMNELSLSQLLNEWDTFRKERKTNDINPVFKNSFSLLTECLQTMRQECIVYQNFVEVFFHISSKHNFEEYIKHFNDPDAPPILLDTVKVMQSDREAAVIETQLVSRIFQPIVTRLSSYFVELVKAEPTVAPALTFYLENEIKSLESSNHEFLLSAVTRMYTQIKQVWSDNVEEQVLHFERISNATTNGEILPGILDLPVGLKNSEDLFQFAKRSMDIKDTDEGYESIELMNSSFRKLSIAATRSITHKEVNSSINPNLSDTAALNNDYMETISLLVNSNWLTEMLSMLNFNKDGIFDTSLQNVKKVFDVEKESYASFLLRDTMPKLTAFVYGVSNIIENTNNVNMTNPSRWAAYSRQNLENILLAYTSHEIETLVKRLHTHMVNDFGYHQENAINNVLCDKLWSCIQGQTVSLYLKLYTVIDKHYRGTNIRFTKNDIISAFEEYKNA

Variants of: B1
Conditions: with rho1_yeast RHO1, P06780
rho1_yeast RHO1, P06780, sequence (P06780 whole entry): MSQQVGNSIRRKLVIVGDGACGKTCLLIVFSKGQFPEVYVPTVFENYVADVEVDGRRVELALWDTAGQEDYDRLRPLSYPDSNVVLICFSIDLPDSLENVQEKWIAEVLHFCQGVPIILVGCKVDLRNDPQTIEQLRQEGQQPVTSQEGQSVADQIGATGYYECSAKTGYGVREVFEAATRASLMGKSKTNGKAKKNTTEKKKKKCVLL

Row | Variant | effect of a mutation on the interaction
1 | L131A | disrupting interaction
2 | K136A | disrupting interaction
3 | E199A | disrupting interaction
